Values quoted from earlier work in publication PMC3134471.

Target: luteinizing hormone receptor (Homo sapiens) (UniProt P22888)
UniProt P22888, sequence (P22888 27-699): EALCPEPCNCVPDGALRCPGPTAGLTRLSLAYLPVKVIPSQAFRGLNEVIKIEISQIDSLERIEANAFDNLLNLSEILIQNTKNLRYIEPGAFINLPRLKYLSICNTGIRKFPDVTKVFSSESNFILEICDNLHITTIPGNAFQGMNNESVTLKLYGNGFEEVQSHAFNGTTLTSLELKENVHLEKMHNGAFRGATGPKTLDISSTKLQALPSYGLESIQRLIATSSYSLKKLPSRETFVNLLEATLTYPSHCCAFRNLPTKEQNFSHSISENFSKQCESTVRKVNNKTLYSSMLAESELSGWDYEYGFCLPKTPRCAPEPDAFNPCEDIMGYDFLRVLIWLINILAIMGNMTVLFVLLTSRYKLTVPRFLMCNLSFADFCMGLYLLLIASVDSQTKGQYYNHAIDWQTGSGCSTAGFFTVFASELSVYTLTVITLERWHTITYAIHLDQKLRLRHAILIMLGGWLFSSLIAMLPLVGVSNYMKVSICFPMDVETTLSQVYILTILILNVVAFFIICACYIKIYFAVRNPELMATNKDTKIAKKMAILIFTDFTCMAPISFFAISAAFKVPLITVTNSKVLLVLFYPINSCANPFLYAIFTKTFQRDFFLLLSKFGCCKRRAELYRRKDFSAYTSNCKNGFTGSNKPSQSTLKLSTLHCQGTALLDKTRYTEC

For “human chorionic gonadotropin (from UniProt P01215)”, the Kd is listed as 0.3 nM.
